{"source": "paper PMC10471174", "target": "T1, purified human SAP30 protein (GST removed) (human), O75446", "T1 chain": "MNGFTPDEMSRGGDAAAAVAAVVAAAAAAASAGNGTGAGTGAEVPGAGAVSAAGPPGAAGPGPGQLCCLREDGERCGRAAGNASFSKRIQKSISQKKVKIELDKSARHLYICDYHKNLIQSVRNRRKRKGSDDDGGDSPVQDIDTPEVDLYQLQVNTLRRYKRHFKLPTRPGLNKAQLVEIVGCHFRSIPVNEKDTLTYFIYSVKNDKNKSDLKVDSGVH", "experiment": "SDS-PAGE under non-reducing conditions; purified SAP30 (GST removed) treated with or without β-mercaptoethanol and boiling; Coomassie staining and immunoblot", "details": "remark: other sources report otherwise"}
{"binder": "purified human SAP30 protein (GST removed), O75446 1-220 (natural protein) MNGFTPDEMSRGGDAAAAVAAVVAAAAAAASAGNGTGAGTGAEVPGAGAVSAAGPPGAAGPGPGQLCCLREDGERCGRAAGNASFSKRIQKSISQKKVKIELDKSARHLYICDYHKNLIQSVRNRRKRKGSDDDGGDSPVQDIDTPEVDLYQLQVNTLRRYKRHFKLPTRPGLNKAQLVEIVGCHFRSIPVNEKDTLTYFIYSVKNDKNKSDLKVDSGVH", "values": [{"measurement": "stoichiometry N", "value": 2}]}
